Numbering of substitutions follows the chain as printed. Ends that are not written are not given here. * marks the point of attachment. Biotin = O=C1N[C@H]2[C@H](CS[C@H]2CCCCC(=O)*)N1

The record followed here is US20110059092A1 (INNOGENETICS, published 2011).

The labels stand for the following.
B1: TeiA 2b.6 (antibody, IgG2b, V domains shown)
VH: GGLVQPGGSLRLSCATSGFTFTDFYMEWVRQPPGKRLEWIAASRNKANGYTTEYSASVKGRFIVSRDTSQGILYLQMSALRAEDTAIYYCAIYRYYAMDYWGQGTSVTVSS
VL: SSLTVTAGEKVTMSCKSSQSLFNSGRQTNYLTWFQQRPGQAPKLLIYWASTRGSGVPDRFTGSGSGTEFTLTISSVQAEDLAVYYCQNDYTYPLTFGAG
notes: Mouse monoclonal, IgG2b; also called 2.13.E5; 2.13.E5.E4
B2: TeiA 1.1 (antibody, IgG1, V domains shown)
VH: GGLVQPGGSLRLSCATSGFTFSDFFIEWVRQPPGKRLEWITASRNKNYDYKTEYSASVKGRFIVSRDTSQSILYLQMNALRAEDTAIYYCAIYRHYAMDYWGQGTSVTVSS
VL: B1 VL with K16T, R26T, F34Y, R37K, A41P, G53E, E68D
notes: Mouse monoclonal, IgG1; The printed variable regions seem N-terminally incomplete (primer region missing); also called 3.46.B10; 3.46.B10.E7
B3: TeiA 1.7 (antibody, IgG1, V domains shown)
VH: GGLVQPGGSLRLSCATSGFTFSDFYMEWVRQPPGRRLEWIAASRDKAKDYTTEYSASVKGRFIVSRDTSQSIFYLQMNALRSEDTAIYYCATYFSYAMDYWGLGTSVTVSS
VL: SSLTVTAGEKVTMNCKSSQNLLNSGNQVNYLTWFQQKPGQPPKLLIYWASTRESGVPDRFIGSGSGTDFTLTINSVQAEDLAVYYCQNDYRYPLTFGAG
notes: Mouse monoclonal, IgG1; The printed variable regions seem N-terminally incomplete (primer region missing); also called 2.8.A3; 2.8.A3.F8

The target in one experiment is T1, Aβ8-15-bio (not fully specified (C-terminus); printed as S8GYEVHHQ15GK-biotin).
T1 construct: Synthetic biotinylated peptide with a free N-terminus at Ser8 of Aβ; also called IGP-2258; Aβ8-15 peptide
T1 peptide: SGYEVHHQGK(Biotin)
Briefly: bridging assay: BSA-coupled Aβ8-15 peptide (PG127) captures one binding site, biotinylated peptide detects. On the procedure:
Spleen of both mice were prepared and fused to SP2/0 cells. After plating, 66 plates (±3000 clones) were screened. […] In the bridging assay, BSA coupled peptide IGP-128, PG127 (see Table 3) was used to capture one binding site of the antibody and a biotinylated peptide was used to detect the captured antibody in a so-called bridging assay. This assay gives an indication on the affinity of the antibody: a high-affinity antibody will give a higher signal than a lower affinity antibody. Indeed ‘two classes’ of antibodies have been identified.
For the molecule B1, the “Bridging assay (OD450)” value came out at 4 OD450.

Regarding B2, the “Bridging assay (OD450)” value was 3.76 OD450.

For B3, the “Bridging assay (OD450)” value worked out at 0.222 OD450.

A further experiment deals with T2, Aβ6-13-bio (not fully specified (C-terminus); printed as H6DSGYEVH13GK-biotin).
T2 construct: Synthetic biotinylated peptide, shifted two amino acids N-terminal compared with Aβ8-15; also called Aβ6-13 peptide
T2 peptide: HDSGYEVHGK(Biotin)
Briefly: Luminex: biotinylated peptide on avidin beads, anti-mouse phycoerythrin detection. From the text: (§1) To determine the specificity of the antibody a peptide was used which is shifted two amino-acids N-terminal as compared to the Aβ₈₋₁₅, the Aβ₆₋₁₃ peptide. The biotinylated versions of these peptides are used in order to capture it efficiently to avidin Luminex beads. […] The results presented in Table 3 are raw data expressed as Mean Fluorescence Intensity (MFI).
On to B1, for which the “Luminex assay (MFI)” value stood at 51 MFI.

On to B2, for which the “Luminex assay (MFI)” value is 24 MFI.

In the case of B3, the “Luminex assay (MFI)” value is 5 MFI.

In another experiment the target is T1, Aβ8-15-bio. Described as above.
Source text: as §1
Take B1: the “Luminex assay (MFI)” value was 1690 MFI.

As for B2, the “Luminex assay (MFI)” value is 1820 MFI.

As for B3, the “Luminex assay (MFI)” value amounted to 1720 MFI.
